Assay results as given in patent US20240116985A1 (published 2024).
Starred links: 1 amine or outer side, 2 acyl side, 3 side chain; linkers in the order of their positions; H or OH if unused. Positions of bridges follow the written chain, without caps; N, C: chain ends. Non-standard residues stand in square brackets, D forms with d. Primed or numbered codes have the meaning given here. *: point of attachment. PyrS2″ = (S)-3-amino-1-((pent-4-en-1-yloxy)carbonyl)pyrrolidine-3-carboxylic acid (stapling residue), C=CCCCOC(=O)N1CC[C@@](N[*:1])(C(=O)[*:2])C1; B5(16) = 2-amino-2-(pent-4-en-1-yl)hept-6-enoic acid = 2,2-bis(4-pentenyl)glycine (stitching residue), C=CCCCC(CCCC=C)(N[*:1])C(=O)[*:2]; B5(4) = 2,2-bis(4-pentenyl)glycine = 2-amino-2-(pent-4-en-1-yl)hept-6-enoic acid (stitching residue), C=CCCCC(CCCC=C)(N[*:1])C(=O)[*:2]; B5(5) = 2,2-bis(4-pentenyl)glycine, 2-amino-2-(pent-4-en-1-yl)hept-6-enoic acid (stitching residue), C=CCCCC(CCCC=C)(N[*:1])C(=O)[*:2]; PyrS2 = (S)-3-amino-1-((pent-4-en-1-yloxy)carbonyl)pyrrolidine-3-carboxylic acid, C=CCCCOC(=O)N1CC[C@@](N[*:1])(C(=O)[*:2])C1; B5(19) = 2-amino-2-(pent-4-en-1-yl)hept-6-enoic acid (bis(4-pentenyl)glycine), C=CCCCC(CCCC=C)(N[*:1])C(=O)[*:2]; Phe(3-CF3) = N[C@@H](Cc1cccc(C(F)(F)F)c1)C(=O)O; Phe(2-Cl) = N[C@@H](Cc1ccccc1Cl)C(=O)O; Bta = N[C@@H](Cc1csc2ccccc12)C(=O)O; αAllylPro = C=CC[C@@]1(C(=O)O)CCCN1; tBuAla = CC(C)(C)C[C@H](N)C(=O)O; S8 = C=CCCCCCC[C@](C)(N)C(=O)O; iPr = CC(C)*

How the values were obtained:
[1] = target: T1, full-length beta-Catenin (Uniprot ID P35222) (Homo sapiens (Human), UniProt P35222 2-781); assay: fluorescence polarization competition; full-length beta-catenin, 5FAM-TCF4(10-53) probe as competitor
T1 construct: The FP protocol names full-length beta-Catenin (Uniprot ID P35222); also called bCat; B-Catenin
T1 sequence: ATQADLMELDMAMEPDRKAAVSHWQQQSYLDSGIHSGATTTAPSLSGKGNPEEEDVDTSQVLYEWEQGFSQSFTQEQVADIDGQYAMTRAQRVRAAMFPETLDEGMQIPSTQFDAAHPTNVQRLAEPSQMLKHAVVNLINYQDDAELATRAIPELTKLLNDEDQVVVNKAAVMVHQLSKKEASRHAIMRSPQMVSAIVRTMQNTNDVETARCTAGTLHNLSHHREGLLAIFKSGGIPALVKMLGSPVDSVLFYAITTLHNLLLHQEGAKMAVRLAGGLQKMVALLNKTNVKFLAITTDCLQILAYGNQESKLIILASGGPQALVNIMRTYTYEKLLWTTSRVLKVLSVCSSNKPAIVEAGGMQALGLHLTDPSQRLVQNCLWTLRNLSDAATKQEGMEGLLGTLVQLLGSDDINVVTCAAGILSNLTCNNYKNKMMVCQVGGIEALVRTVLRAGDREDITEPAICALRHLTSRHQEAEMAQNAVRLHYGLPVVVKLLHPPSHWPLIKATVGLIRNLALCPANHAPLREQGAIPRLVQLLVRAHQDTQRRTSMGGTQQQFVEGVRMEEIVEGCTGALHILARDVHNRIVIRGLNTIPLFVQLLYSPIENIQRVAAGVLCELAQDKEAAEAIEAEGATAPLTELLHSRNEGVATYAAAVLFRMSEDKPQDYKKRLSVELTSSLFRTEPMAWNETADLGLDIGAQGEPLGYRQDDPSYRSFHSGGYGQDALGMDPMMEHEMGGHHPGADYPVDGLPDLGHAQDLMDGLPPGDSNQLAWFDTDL
Method: (§1) The plate was incubated protected from light for 60 minutes at 20° C. prior to read. Reads were performed on a CLARIOstar plate reader (BMG Labtech) in duplicate, and data were fitted to a 1:1 binding model with hill slope using an in-house script. All provided concentrations are final concentrations.

[2] = target: T2, B-cat-Halo (beta-catenin HaloTag NanoBRET construct expressed in HEK293 cells) (UniProt P35222 1-781, HaloTag NanoBRET 618 Ligand bound in the assay); assay: cell-based or functional assay
T2 sequence (looked up): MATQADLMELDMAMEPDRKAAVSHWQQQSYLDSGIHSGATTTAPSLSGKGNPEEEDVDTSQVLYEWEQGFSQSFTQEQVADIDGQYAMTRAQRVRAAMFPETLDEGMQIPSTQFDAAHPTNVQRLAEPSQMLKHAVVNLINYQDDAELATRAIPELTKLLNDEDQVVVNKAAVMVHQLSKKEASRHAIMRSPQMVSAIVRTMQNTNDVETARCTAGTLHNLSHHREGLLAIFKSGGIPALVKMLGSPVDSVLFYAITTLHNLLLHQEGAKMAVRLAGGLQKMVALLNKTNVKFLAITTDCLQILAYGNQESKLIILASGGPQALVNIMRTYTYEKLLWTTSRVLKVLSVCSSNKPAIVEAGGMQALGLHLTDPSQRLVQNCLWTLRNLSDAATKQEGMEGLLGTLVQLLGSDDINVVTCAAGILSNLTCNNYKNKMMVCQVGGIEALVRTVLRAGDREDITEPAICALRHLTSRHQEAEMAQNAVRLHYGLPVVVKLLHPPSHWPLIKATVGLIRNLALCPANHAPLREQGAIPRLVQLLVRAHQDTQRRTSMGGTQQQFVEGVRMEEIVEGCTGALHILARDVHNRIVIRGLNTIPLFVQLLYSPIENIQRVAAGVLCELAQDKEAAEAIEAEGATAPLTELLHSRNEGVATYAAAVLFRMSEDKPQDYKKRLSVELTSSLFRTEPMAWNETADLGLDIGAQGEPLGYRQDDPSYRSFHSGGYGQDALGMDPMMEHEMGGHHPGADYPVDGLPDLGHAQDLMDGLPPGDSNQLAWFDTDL

[3] = target: T3, full-length beta-Catenin (Uniprot ID P35222) (Homo sapiens (Human), UniProt P35222 1-781); assay: fluorescence polarization competition; 10 nM full-length beta-catenin with 10 nM 5FAM-labeled TCF4 (residues 10-53) probe as competitor
T3 construct: The assay text says 'full-length beta-Catenin (Uniprot ID P35222)'; No tags are stated for the FP assay; also called bCat; B-Catenin
T3 sequence: T2 sequence (looked up)
Method: as §1

[4] = target: T4, full-length beta-Catenin (Uniprot ID P35222) (Homo sapiens (Human), UniProt P35222 2-781); assay: fluorescence polarization competition; full-length beta-catenin, competitor 5FAM-TCF4(10-53) probe
T4 construct: also called bCat; B-Catenin
T4 sequence: T1 sequence
In short: (§2)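 Incubate 60 minutes at 20° C. away from light, then read polarization in duplicate. Fit to 1:1 binding with hill slope.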

[5] = target: T5, full-length beta-Catenin (Uniprot ID P35222) (Homo sapiens (Human), UniProt P35222 2-781); assay: fluorescence polarization competition; full-length beta-catenin, competitor 5FAM-TCF4 10-53 probe
T5 construct: Given as 'full-length beta-Catenin (Uniprot ID P35222)' in the fluorescence polarization protocol; also called bCat; B-Catenin
T5 sequence: T1 sequence
Method: as §1

[6] = target: T6, B-cat-Halo (beta-catenin HaloTag construct expressed in HEK293 cells) (UniProt P35222 1-781, HaloTag NanoBRET 618 Ligand bound in the assay); assay: NanoBRET Abs IC50 in HEK293 cells; B-cat-Halo with competitor TCF4-Luc
T6 construct: Transfected NanoBRET construct; not shown: HaloTag
T6 sequence (looked up): T2 sequence (looked up)

[7] = target: T7, full-length beta-Catenin (Uniprot ID P35222) (Homo sapiens (Human), UniProt P35222 1-781); assay: fluorescence polarization competition; full-length beta-catenin, competitor 5FAM-TCF4(10-53) probe
T7 construct: Tags of the recombinant protein are not described for the FP assay; also called bCat; B-Catenin
T7 sequence: T2 sequence (looked up)
In short: as §2

[8] = target: T8, B-cat-Halo (UniProt P35222 1-781, HaloTag NanoBRET 618 Ligand bound to the HaloTag in the assay); assay: NanoBRET absolute IC50 in HEK293 cells; Bcat-Halo, competitor TCF4-Luc
T8 construct: Transfected into HEK293 cells for the NanoBRET assay; intracellular; also called beta-catenin HaloTag fusion; not shown: HaloTag
T8 sequence (looked up): T2 sequence (looked up)

[9] = target: T9, full-length beta-Catenin (Uniprot ID P35222) (Homo sapiens (Human), UniProt P35222 2-781); assay: fluorescence polarization competition; 10 nM full-length beta-catenin, 10 nM 5FAM-TCF4(10-53) probe
T9 construct: The FP assay uses 10 nM 'full-length beta-Catenin (Uniprot ID P35222)'; also called bCat; B-Catenin
T9 sequence: T1 sequence
Method: as §1

[10] = target: B-cat-Halo (beta-catenin HaloTag fusion expressed in HEK293 cells) (UniProt P35222 1-781); assay: NanoBRET Abs IC50 in HEK293 cells; Bcat-Halo / TCF4-Luc engagement, competitor TCF4-Luc

B1: I-1811 (peptide)
peptide: Ac-[αAllylPro]DL[B5(19)]DDAAFL[PyrS2]FWQ-NH2
modifications: staple 1-4, 4-11
notes: Stapled peptide; also called Ac-PL3-Asp-Leu-B5-Asp-Asp-Ala-Ala-Phe-Leu-PyrS2-Phe-Trp-Gln-NH2
In the case of B1, the IC50 [1] is reported as 156 nM and the “NanoBRET Abs IC50” value [2] is reported as 32300 nM.

B2: I-217 (peptide)
peptide: Ac-[αAllylPro]DA[B5(4)]DEAAXV[S8]FWQ-NH2
modifications: staple 1-4, 4-11; not fully specified (residue 9); printed as Ac-PL3-Asp-Ala-B5-Asp-Glu-Ala-Ala-MeTyr-Val-S8-Phe-Trp-Gln-NH2
notes: Stapled (stitched) peptide; also called Ac-PL3-Asp-Ala-B5-Asp-Glu-Ala-Ala-MeTyr-Val-S8-Phe-Trp-Gln-NH2
B2 was tested, and the IC50 [3] was 1960 nM.

With Ac-[αAllylPro]DF[B5(4)]DDLLFT[PyrS2″][Phe(2-Cl)][Bta]S-NH2 (staple 1-4, 4-11, '2C1F' is printed for 2ClF) [I-1158] the IC50 [4] was 168 nM.

Binder Ac-[αAllylPro]DL[B5(19)]DDAAFL[PyrS2]F[Bta]Q-NH2 (staple 1-4, 4-11) [I-1402] has an IC50 [5] of 9 nM and an IC50 [6] of 27100 nM.

Work on Ac-[αAllylPro]DL[B5(4)]DEAAFQ[S8]F[Bta]Q-NH2 (staple 1-4, 4-11) [I-1458] yielded an IC50 [7] of 26 nM and an IC50 [8] of 18100 nM.

B3: I-1647 (peptide)
peptide: Ac-[αAllylPro]NY[B5(16)]DQK(iPr)AFL[PyrS2]F[Bta]Q-NH2
modifications: staple 1-4, 4-11
notes: Stapled peptide; also called Ac-PL3-Asn-Tyr-B5-Asp-Gln-iPrLys-Ala-Phe-Leu-PyrS2-Phe-BztA-Gln-NH2
B3 showed an IC50 [9] of 2350 nM.

Binder Ac-[αAllylPro]D[tBuAla][B5(5)]DTAA[Phe(3-CF3)]T[PyrS2″]F[Bta]S-NH2 (staple 1-4, 4-11) [I-1268: Ac-PL3-Asp-Npg-B5-Asp-Thr-Ala-Ala-3F3MeF-Thr-PyrS2-Phe-BztA-Ser-NH2] has an IC50 [10] of 28400 nM.
